Test results as given in US11672846B2, “Soluble bacterial and fungal proteins and methods and uses thereof in inhibiting and dispersing biofilm” (priority 2014, dated 2023).
“Also recorded” adds a separate entry of the source.

Key:
[1] = purified protein
[2] = tested on: Pel biofilms of P. aeruginosa PAO1 ΔwspFΔpslpBADpel; experiment: Dispersal of pre-formed Pel biofilms (crystal violet); details: 38 μM and 19 μM, 2 h
Text: The methodology to generate pre-formed Pel biofilms is identical to that of Psl biofilms, described in Example 4 with the exception that the strain used is P. aeruginosa PAO1 ΔwspFΔpslpBADpel.

[3] = tested on: A549 pulmonary epithelial cell line injured by A. fumigatus; experiment: Chromium release epithelial cell damage assay; details: 0.5 μM, 16 h
Experimental: The immortalized airway epithelial cell line A549 was loaded with chromium-51 by incubating monolayers grown in 24-well tissue culture plates with 3 mCi of ^51Cr at 37° C. in 5% CO2 for 24 h. Excess chromium was removed by washing with Hank's Balanced Salt Solution (HBSS). […] For testing germ tubes, conidia were grown for 7 h in SAB media at 37° C., then the fungus was collected and resuspended in DF12K media before 0.5 μM of hydrolase was added. The germ tubes were incubated with hydrolase for 1 h before being added to the A549 cells. After 16, 20 and 24 h of co-incubation, an aliquot of the medium above the cells was retrieved and replaced with fresh media. The cells were then lysed with 6 N NaOH and the lysate collected. The ^51Cr content of the medium and lysates was then measured in a gamma counter and the extent of epithelial cell damage was calculated as a function of the degree of ^51Cr release. Each strain was tested in triplicate, and all results were corrected for spontaneous chromium release by uninfected epithelial cells.
The methodology for prevention of epithelial cell damage caused by A. fumigatus using Sph352-298 is identical to that previously described in Example 19 for the use PelA47-303.

[4] = Reducing sugar assay on purified GAG; type: biochemical, A. fumigatus
Experimental: (§1) Crude GAG was isolated from A. fumigatus biofilms. 200 μL GAG aliquots were centrifuged to pellet the gelatinous fraction. The pellets were washed twice with 350 μL PBS. The wash procedure included vortexing for 5 min, sonicated in a bath for 3 min, and manual mixing by pipetting to reach homogeneity. The final pellet was resuspended in 200 μL of PBS. Samples were treated with 10-20 μM protein and incubated at 26° C. Samples were taken at 24 h. GAG hydrolysis was quantified using a reducing sugar assay as described previously (Anthon & Barrett 2002) with slight modifications. Briefly, 20 μL of enzyme reaction was mixed with 20 μL of 0.5 M NaOH and 20 μL of MBTH/DTT solution (1.5 mg/L 3-methyl-2-benzothiazolinone hydrazine (MBTH) and 0.5 mg/L DTT). The samples were incubated at 80° C. for 15 min before the addition of 40 μL of acidic iron reagent (0.5% (FeNH4(SO4)2).12 H2O, 0.5% sulfamic acid, and 0.25 N HCl). Samples were diluted two-fold in water, before the absorbance was quantified at 620 nm.

[5] = tested on: P. aeruginosa PAO1 ΔwspFΔpslpBADpel; experiment: Inhibition of Pel biofilm formation in static culture (crystal violet); details: static culture
[6] = tested on: PNAG-overproducing E. coli biofilms; experiment: Dispersal of pre-formed PNAG-dependent E. coli biofilms
Experimental: Bacterial cultures expressing Psl were inoculated as stated above and were grown at 37° C. overnight with shaking at 200 rpm. All cultures were diluted in 1:100 in LB and arabinose was added to a final concentration of 0.5% (w/v) to induce Psl biosynthesis. Media containing the Psl-producing cultures were supplemented with 200 μg/mL ampicillin and 100 μg/mL kanamycin. The cultures were incubated statically for 24 h at 26° C. to allow for biofilm formation. After incubation non-adherent cells and media were removed by washing the plate with deionized water three times. The wells were filled with 95 μL of 100 mM sodium HEPES buffer pH 7.0 followed by 5 μL of varying concentrations of each hydrolytic enzyme (2 nM-5 μM). Reactions were allowed to proceed for up to 60 min at 25° C. on a rotating nutator at which time, the reaction was quenched by washing the plates with deionized water. The wells were stained with 200 μL of 0.1% (w/v) crystal violet for 10 min, and washed with water three times. Crystal violet dye from Psi cultures was solubilized in 100 μL of 95% ethanol for 10 min with rotation, after which time the absorbance was measured at 595 nm using a SpectraMax M2 from Molecular Devices (Sunnyvale, Calif.). The amount of biofilm is proportional to the absorbance from staining with crystal violet (Merritt et al 2005). All reactions were completed in at least triplicate and 100 mM sodium HEPES buffer pH 7.0 was used as an untreated control. The addition of 2.5 mg/mL kanamycin to culture prior to biofilm formation was used as a positive control as no cell growth occurs.
PNAG-overproducing E. coli was grown at 37° C. overnight in LB broth supplement with 200 ug/mL ampicillin and 100 ug/mL kanamycin with shaking at 200 rpm. An E. coli μgaABCD knockout strain was used as a non-biofilm forming control for background straining.

[7] = Reducing sugar assay, substrate specificity; type: biochemical
Experimental: as §1, with “[…] […]” for “Crude GAG was isolated from A. fumigatus biofilms. 200 μL GAG aliquots were centrifuged to pellet the gelatinous fraction.”, “GAG hydrolysis was quantified using a reducing sugar assay as described previously (Anthon & Barrett 2002) with slight modifications.” left out

[8] = tested on: Psl biofilms of P. aeruginosa PAO1 pBADpsl; experiment: Dispersal of pre-formed Psl biofilms (crystal violet); type: cell-based, Pseudomonas aeruginosa
[9] = tested on: P. aeruginosa PAO1 ΔwspFΔpslpBADpel biofilms with differentiated HL-60 cells; experiment: HL-60 neutrophil killing of P. aeruginosa biofilm (CFU plating)
Experimental: Overnight cultures of P. aeruginosa PAO1 ΔwspFΔpslpBADpel were diluted to an OD600 of 0.05 in LB+0.5% arabinose and inoculated in a 96 well tissue culture-treated plate at a final volume of 100 μl/well. The plate was incubated statically at 28° C. for 20 h. Supernatants were aspirated and 100 μL of phenol red-free RPMI+10% Fetal Bovine Serum (FBS) containing 0.5 μM of PelA47-303 was added. The plate was incubated at room temperature on a Nutator for 1 h. Following pretreatment with hydrolase, 100 μL RPMI+10% FBS containing 6×10^6 differentiated HL-60 cells were added to the wells, and plate was incubated for 90 min at 37° C., 5% CO2. Wells were aspirated and supernatant was diluted between 1/200000 and 1/400000, and plated (50 μl) onto LB agar. To aspirated wells, 200 μL of “disruption solution” (PBS containing 2 μM of PelA47-303 and 2 μM PslG31-442) was added and plate was incubated at room temperature on the Nutator for 1-1.5 h. Wells were aspirated, diluted and plated onto LB agar as above.

[10] = tested on: P. aeruginosa PAO1 pBADpsl; experiment: Inhibition of Psl biofilm formation in static culture (crystal violet); type: cell-based, Pseudomonas aeruginosa; details: specificity control
[11] = tested on: A. fumigatus GAG biofilm; experiment: Inhibition of GAG-dependent A. fumigatus biofilm formation (crystal violet); type: cell-based; details: 20 h in Brian media, crystal violet
[12] = tested on: pre-formed A. fumigatus GAG biofilms; type: cell-based; details: crystal violet
[13] = tested on: Pel-dependent biofilms from P. aeruginosa PAO1 ΔwspFΔpslpBADpel; experiment: Pel biofilm dispersal by enzyme in Pluronic F-127 gel; type: cell-based, Pseudomonas aeruginosa; details: 100, 200 and 500 μg/mL in 20% Pluronic F-127, 1 h
Experimental: Poloxamer 407 (trade name Pluronic® F-127 or PF-127) is a hydrophilic non-ionic surfactant has been used as a drug delivery system for a number of routes of administration (Escobar-Chavez et al 2006). A 20% gel of PF-127 was prepared by mixing 1×PBS with Pluronic® F-127 at 4° C. until the polymer was dissolved. PelA47-303 was added at three concentrations; 100 μg/mL, 200 μg/mL and 500 μg/mL to this solution. Pel-dependent biofilms from strain P. aeruginosa PAO1 ΔwspFΔpslpBADpel were formed as described in Example 8. The buffer, gel and gels containing various concentrations of PelA47-303 were applied to the biofilm.

B1: PelA47-303: soluble PelA hydrolase domain, residues 47-303, P. aeruginosa PAO1, SEQ ID NO: 12 (protein, listed as Pseudomonas aeruginosa)
chain: GGPSSVAFWYAERPPLAELSQFDWVVLEAAHLKPADVGYLKEQGSTPFAYLSVGEFDGDAAAIADSGLARGKSAVRNQAWNSQVMDLAAPSWRAHLLKRAAELRKQGYAGLFLDTLDSFQLQAEERREGQRRALASFLAQLHRQEPGLKLFFNRGFEVLPELPGVASAVAVESIHAGWDAAAGQYREVPQDDRDWLKGHLDALRAQGMPIVAIDYLPPERRDEARALAARLRSEGYVPFVSTPALDYLGVSDVEVQP
[1]
  concentration to which the protein could be concentrated: 8 to 10 mg/mL
[2]
  dispersal of pre-formed Pel biofilm (in words): successfully dispersed the Pel biofilm; also recorded: biofilm dispersal after 2 hours
[3]
  epithelial cell injury by A. fumigatus, chromium release: blocked the ability of A. fumigatus to induce pulmonary epithelial cell injury
[4]; 10-20 μM protein, 26° C., 24 h
  GAG hydrolysis, reducing ends (in words): number of reducing ends in solution increased
[4]; under assay conditions
  reducing ends produced relative to Sph352-298: ~2 fold
[5]
  enzyme concentration that prevented Pel biofilm formation: 500 nM
[6]
  dispersal of PNAG-dependent biofilms (in words): had no affect
[7]
  hydrolysis of chitin and chitosan: not significant over background hydrolysis
[8]
  dispersal of pre-formed Psl biofilm (in words): did not result in the loss of the Psl-dependent biofilm
[9]; 0.5 μM enzyme pretreatment, neutrophils alone approximately 22%
  degree of microbial killing by HL-60 neutrophil cell line: ~42%
[9]; enzyme with neutrophils
  bacterial killing relative to neutrophils alone: ~2 fold
[10]
  inhibition of Psl biofilm formation (in words): did not inhibit Psl biofilm formation
[11]
  concentration sufficient to prevent GAG biofilm formation: ≥ 2 µM
[12]
  dispersal of pre-formed GAG biofilm (in words): elimination of the GAG biofilm
[13]
  dispersal of Pel-dependent biofilm by enzyme in gel: able to disperse the biofilm; also recorded: successfully dispersed the biofilm
